The data set addresses T1, (D)FPR-PNA.
T1 chain: FPR

B1: human Factor VIIa (FVIIa) and human tissue factor (TF) complex (protein)
chain 1: ANAFLEELRPGSLERECKEEQCSFEEAREIFKDAERTKLFWISYSDGDQCASSPCQNGGSCKDQLQSYICFCLPAFEGRNCETHKDDQLICVNENGGCEQYCSDHTGTKRSCRCHEGYSLLADGVSCTPTVEYPCGKIPILEKRNASKPQGRIVGGKVCPKGECPWQVLLLVNGAQLCGGTLINTIWVVSAAHCFDKIKNWRNLIAVLGEHDLSEHDGDEQSRRVAQVIIPSTYVPGTTNHDIALLRLHQPVVLTDHVVPLCLPERTFSERTLAFVRFSLVSGWGQLLDRGATALELMVLNVPRLMTQDCLQQSRKVGDSPNITEYMFCAGYSDGSKDSCKGDSGGPHATHYRGTWYLTGIVSWGQGCATVGHFGVYTRVSQYIEWLQKLMRSEPRPGVLLRAPFP
chain 2: SGTTNTVAAYNLTWKSTNFKTILEWEPKPVNQVYTVQISTKSGDWKSKCFYTTDTECDLTDEIVKDVKQTYLARVFSYPAGNVESTGSAGEPLYENSPEFTPYLETNLGQPTIQSFEQVGTKVNVTVEDERTLVRRNNTFLSLRDVFGKDLIYTLYYWKSSSSGKKTAKTNTNEFLIDVDKGENYCFSVQAVIPSRTVNRKSTDSPVECMGQEKGEFRE
In the case of B1, the “Kcat/KM of substrate hydrolysis” value was “Factor VII: Kcat/KM=1.27×10^4 M^-1 S^-1”.

For the origin of these results see patent publication US6699869.
